Results on nine molecules are retold here after patent EP1870419A2 (Praecis Pharmaceuticals Incorporated, dated 2000).

First the molecules themselves.
B1: PPI 993: TFA·H-(lvffa)-dimethylamide (peptide)
peptide: H-[dL][dV][dF][dF][dA]-NMe2
modifications: also: TFA salt
B2: PPI 970: TFA·N-isopropyl-(Gaffvl)-NH2 (peptide)
peptide: {N‑isopropyl}-G[dA][dF][dF][dV][dL]-NH2
modifications: also: TFA salt
B3: PPI 1006: TFA·N,N-diethyl-(affvl)-NH, (peptide)
peptide: {N,N‑diethyl}-[dA][dF][dF][dV][dL]-NH2
modifications: also: TFA salt
B4: PPI 913: TFA·N,N-dimethyl-(affvl)-NH2 (peptide)
peptide: {N,N‑dimethyl}-[dA][dF][dF][dV][dL]-NH2
modifications: also: TFA salt
B5: PPI 1005: TFA·N,N-diethyl-(Gaffvl)-NH2 (peptide)
peptide: {N,N‑diethyl}-G[dA][dF][dF][dV][dL]-NH2
modifications: also: TFA salt
B6: PPI 803: TFA·N,N-dimethyl-(Gaffvl)-NH2 (peptide)
peptide: {N,N‑dimethyl}-G[dA][dF][dF][dV][dL]-NH2
modifications: also: TFA salt
B7: PPI 968: TFA·N-methyl-(Gaffvl)-NH2 (peptide)
peptide: {N‑methyl}-G[dA][dF][dF][dV][dL]-NH2
modifications: also: TFA salt
B8: PPI-1319: TFA·H-(lf-[p-F]f-vl)-NH2 (peptide)
peptide: H-[dL][dF][dPhe(4-F)][dV][dL]-NH2
modifications: also: TFA salt
B9: PPI 1321: 2TFA·H-(lfkvl)-NH2 (peptide)
peptide: H-[dL][dF][dK][dV][dL]-NH2
modifications: also: TFA salt

Square brackets hold non-standard residues; d marks the D form. dPhe(4-F) = N[C@H](Cc1ccc(F)cc1)C(=O)O

For one assay, the target named is T1, Aβ1-40 peptide (natural β-amyloid peptide, β-AP1-40) (In the fibril binding assay the peptide stood as aged fibrils (many copies, number not stated). In the nucleation assay [CUT]). Nature of the assay: cell-based or functional assay.
Regarding B1, the “Nucleation assay Δlag, 1.25 µM compound” value is 1 fold of control lag time; the “Nucleation assay Δlag, 2.5 µM compound” value is 1 fold of control lag time; the “Nucleation assay Δlag, 5 µM compound” value is 1 fold of control lag time.

With B2, the “Nucleation assay Δlag, 1.25 µM compound” value is 1 fold of control lag time; the “Nucleation assay Δlag, 2.5 µM compound” value is > 5 fold of control lag time; the “Nucleation assay Δlag, 5 µM compound” value is > 5 fold of control lag time.

On to B3, for which the “Nucleation assay Δlag, 1.25 µM compound” value is 1 fold of control lag time; the “Nucleation assay Δlag, 2.5 µM compound” value was 1 fold of control lag time; the “Nucleation assay Δlag, 5 µM compound” value is 1 fold of control lag time.

As for B4, the “Nucleation assay Δlag, 1.25 µM compound” value is 1 fold of control lag time; the “Nucleation assay Δlag, 2.5 µM compound” value was 1 fold of control lag time; the “Nucleation assay Δlag, 5 µM compound” value is 1 fold of control lag time.

In the case of B5, the “Nucleation assay Δlag, 1.25 µM compound” value is 1 fold of control lag time; the “Nucleation assay Δlag, 2.5 µM compound” value was 3 fold of control lag time; the “Nucleation assay Δlag, 5 µM compound” value was 3 fold of control lag time.

In the case of B6, the “Nucleation assay Δlag, 1.25 µM compound” value is < 1 fold of control lag time; the “Nucleation assay Δlag, 2.5 µM compound” value was < 1 fold of control lag time; the “Nucleation assay Δlag, 5 µM compound” value is < 1 fold of control lag time.

For B7, the “Nucleation assay Δlag, 1.25 µM compound” value is 2 fold of control lag time; the “Nucleation assay Δlag, 2.5 µM compound” value was > 5 fold of control lag time; the “Nucleation assay Δlag, 5 µM compound” value was > 5 fold of control lag time.

The target in a further assay is T1, Aβ1-40 peptide (natural β-amyloid …). Nature of the assay: cell-based or functional assay. This is another data set of the same source.
With B8, the “Nucleation assay data (Δlag), 0.3 µM compound” value is 1 fold of control lag time; the “Nucleation assay data (Δlag), 1 µM compound” value was > 5 fold of control lag time; the “Nucleation assay data (Δlag), 3 µM compound” value is > 5 fold of control lag time.

As for B9, the “Nucleation assay data (Δlag), 0.3 µM compound” value is < 1 fold of control lag time; the “Nucleation assay data (Δlag), 1 µM compound” value was < 1 fold of control lag time; the “Nucleation assay data (Δlag), 3 µM compound” value is < 1 fold of control lag time.
